For this assay, the target named is 3′-end processing factors. Put plainly: immunoprecipitation under standard salt conditions.

With tRNA endonuclease, the percent of the 3′-end processing factors associated is below 1%.
